Data taken from patent US20090317363A1.
Numbering of substitutions follows the chain as printed.

B1: RANTES derivative: signature sequence SEQ ID NO: 4 fused to positions 10-68 of native RANTES (SEQ ID NO: 1) (ligand)
chain: QGPPLMWLQVCCFAYIARPLPRAHIKEYFYTSGKCSNPAVVFVTRKNRQVCANPEKKWVREYINSLEMS
B2: RANTES derivative: signature sequence SEQ ID NO: 57 fused to positions 10-68 of native RANTES (SEQ ID NO: 1) (ligand)
chain: B1 chain with W7G, Q9S
B3: RANTES derivative: signature sequence SEQ ID NO: 48 fused to positions 10-68 of native RANTES (SEQ ID NO: 1) (ligand)
chain: B1 chain with P4L, L5S, M6S, W7Q, L8S
B4: RANTES derivative: signature sequence SEQ ID NO: 44 fused to positions 10-68 of native RANTES (SEQ ID NO: 1) (ligand)
chain: B1 chain with W7S, Q9A
B5: RANTES derivative: signature sequence SEQ ID NO: 5 fused to positions 10-68 of native RANTES (SEQ ID NO: 1) (ligand)
chain: B1 chain with L8T, V10S
B6: RANTES derivative: signature sequence SEQ ID NO: 43 fused to positions 10-68 of native RANTES (SEQ ID NO: 1) (ligand)
chain: B1 chain with L5M, M6Q, W7G, L8G, Q9L, V10S
B7: RANTES derivative: signature sequence SEQ ID NO: 38 fused to positions 10-68 of native RANTES (SEQ ID NO: 1) (ligand)
chain: B1 chain with W7Q
B8: RANTES derivative: signature sequence SEQ ID NO: 31 fused to positions 10-68 of native RANTES (SEQ ID NO: 1) (ligand)
chain: B1 chain with M6S, V10S
B9: RANTES derivative: signature sequence SEQ ID NO: 6 fused to positions 10-68 of native RANTES (SEQ ID NO: 1) (ligand)
chain: B1 chain with V10T
B10: RANTES derivative: signature sequence SEQ ID NO: 40 fused to positions 10-68 of native RANTES (SEQ ID NO: 1) (ligand)
chain: B1 chain with L5M, M6S, L8S, V10S
B11: RANTES derivative: signature sequence SEQ ID NO: 56 fused to positions 10-68 of native RANTES (SEQ ID NO: 1) (ligand)
chain: B1 chain with W7S, L8S, V10S
B12: RANTES derivative: signature sequence SEQ ID NO: 49 fused to positions 10-68 of native RANTES (SEQ ID NO: 1) (ligand)
chain: B1 chain with P4L, L5G, M6Q, W7Q, L8G
B13: RANTES derivative: signature sequence SEQ ID NO: 54 fused to positions 10-68 of native RANTES (SEQ ID NO: 1) (ligand)
chain: B1 chain with L5G, M6Q, L8G
B14: RANTES derivative: signature sequence SEQ ID NO: 39 fused to positions 10-68 of native RANTES (SEQ ID NO: 1) (ligand)
chain: B1 chain with M6S, L8S
B15: RANTES derivative: signature sequence SEQ ID NO: 59 fused to positions 10-68 of native RANTES (SEQ ID NO: 1) (ligand)
chain: B1 chain with L5G, M6Q, L8Y, V10S
B16: RANTES derivative: signature sequence SEQ ID NO: 58 fused to positions 10-68 of native RANTES (SEQ ID NO: 1) (ligand)
chain: B1 chain with W7T
B17: RANTES derivative: signature sequence SEQ ID NO: 52 fused to positions 10-68 of native RANTES (SEQ ID NO: 1) (ligand)
chain: B1 chain with W7A, Q9S
B18: RANTES derivative: signature sequence SEQ ID NO: 42 fused to positions 10-68 of native RANTES (SEQ ID NO: 1) (ligand)
chain: B1 chain with L5M, M6S, W7A, L8Y
B19: RANTES derivative: signature sequence SEQ ID NO: 55 fused to positions 10-68 of native RANTES (SEQ ID NO: 1) (ligand)
chain: B1 chain with L5G, M6S, L8S
B20: RANTES derivative: signature sequence SEQ ID NO: 47 fused to positions 10-68 of native RANTES (SEQ ID NO: 1) (ligand)
chain: B1 chain with P4L, L5S, M6Q, W7S, L8S
B21: RANTES derivative: signature sequence SEQ ID NO: 46 fused to positions 10-68 of native RANTES (SEQ ID NO: 1) (ligand)
chain: B1 chain with P4L, L5S, M6G, L8A
B22: RANTES derivative: signature sequence SEQ ID NO: 45 fused to positions 10-68 of native RANTES (SEQ ID NO: 1) (ligand)
chain: B1 chain with W7S, Q9T
B23: RANTES derivative: signature sequence SEQ ID NO: 51 fused to positions 10-68 of native RANTES (SEQ ID NO: 1) (ligand)
chain: B1 chain with M6Q, L8T
B24: RANTES derivative: signature sequence SEQ ID NO: 41 fused to positions 10-68 of native RANTES (SEQ ID NO: 1) (ligand)
chain: B1 chain with W7N
B25: RANTES derivative: signature sequence SEQ ID NO: 50 fused to positions 10-68 of native RANTES (SEQ ID NO: 1) (ligand)
chain: B1 chain with M6Q, L8F
B26: RANTES derivative: signature sequence SEQ ID NO: 36 fused to positions 10-68 of native RANTES (SEQ ID NO: 1) (ligand)
chain: B1 chain with M6Q, L8R, V10S
B27: RANTES derivative: signature sequence SEQ ID NO: 37 fused to positions 10-68 of native RANTES (SEQ ID NO: 1) (ligand)
chain: B1 chain with W7G, L8T, V10S
B28: RANTES derivative: signature sequence SEQ ID NO: 30 fused to positions 10-68 of native RANTES (SEQ ID NO: 1) (ligand)
chain: B1 chain with M6S
B29: RANTES derivative: signature sequence SEQ ID NO: 34 fused to positions 10-68 of native RANTES (SEQ ID NO: 1) (ligand)
chain: B1 chain with M6S, L8Q, V10S
B30: RANTES derivative: signature sequence SEQ ID NO: 35 fused to positions 10-68 of native RANTES (SEQ ID NO: 1) (ligand)
chain: B1 chain with L5G, L8S, V10S
B31: RANTES derivative: signature sequence SEQ ID NO: 32 fused to positions 10-68 of native RANTES (SEQ ID NO: 1) (ligand)
chain: B1 chain with L5G, M6Q, L8S
B32: RANTES derivative: signature sequence SEQ ID NO: 53 fused to positions 10-68 of native RANTES (SEQ ID NO: 1) (ligand)
chain: B1 chain with L8S
B33: RANTES derivative: signature sequence SEQ ID NO: 33 fused to positions 10-68 of native RANTES (SEQ ID NO: 1) (ligand)
chain: B1 chain with L5M, W7A, L8G, Q9L, V10S

Molecular target: CCR5 (UniProt P51681)
Assay: cell-based or functional assay

Row | Binder | CCR5 sequestration (%) (% of control surface CCR5) | CCR5 signalling (%) (% of Emax of PSC-RANTES) | anti-HIV potency (IC50, nM) by cell fusion assay [nM] | anti-HIV potency (IC50, nM) by viral replication assay [nM]
1 | B1 | 3 | 4.6 | 0.02 | 0.38
2 | B2 | 18 | 4.9 | 0.16 | 
3 | B3 | 78 | 100 | 0.64 | 
4 | B4 | 60 | 68.5 | 0.02 | 
5 | B5 | 0 | 5.3 | 0.02 | 0.576
6 | B6 | 4 | 0.3 | 0.29 | 
7 | B7 | 3 | 0.3 | 0.1 | 
8 | B8 | 6 | 3.6 | 0.02 | 
9 | B9 | 3 | 1.4 | 0.02 | 289
10 | B10 | 6 | 0 | 0.11 | 
11 | B11 | 15 | 7.5 | 0.15 | 
12 | B12 | 77 | 97.2 | 0.74 | 
13 | B13 | 12 | 2.1 | 0.06 | 
14 | B14 | 5 | 1.7 | 0.1 | 
15 | B15 | 15 | 6 | 0.23 | 
16 | B16 | 25 | 0.7 | 0.23 | 
17 | B17 | 11 | 8.3 | 0.02 | 

Row | Binder | CCR5 sequestration (%) (% of control surface CCR5) | CCR5 signalling (%) (% of Emax of PSC-RANTES) | anti-HIV potency (IC50, nM) by cell fusion assay [nM] | anti-HIV potency (IC50, nM) by viral replication assay [nM]
18 | B18 | 0 | 0.2 | 0.16 | 
19 | B19 | 33 | 7.3 | 0.07 | 
20 | B20 | 78 | 96.9 | 0.44 | 
21 | B21 | 72 | 97.6 | 0.4 | 
22 | B22 | 62 | 77.4 | 0.02 | 
23 | B23 | 12 | 5 | 0.02 | 
24 | B24 | 9 | 0 | 0.12 | 
25 | B25 | 11 | 7.6 | 0.02 | 
26 | B26 | 7 | 5.1 | 0.05 | 
27 | B27 | 5 | 0.7 | 0.09 | 
28 | B28 | 4 | 4.1 | 0.01 | 
29 | B29 | 8 | 5.1 | 0.03 | 
30 | B30 | 5 | 4.9 | 0.05 | 
31 | B31 | 5 | 6 | 0.03 | 
32 | B32 | 16 | 5.1 | 0.02 | 
33 | B33 | 0 | 0.2 | 0.03 | 
